The record followed here is US20250376535A1 (BEIJING STARMAB BIOMED TECHNOLOGY, published 2025).

One test deals with T1, 4-1BB Fc (human, UniProt Q07011 24-183).
T1 construct: also called rh-41BB; 41BB-hFc
Briefly: blocking ELISA: 41BBL-mFc (1.m32) coated, VHH premixed with 41BB-hFc, bound 41BB-hFc detected with anti-human IgG Fc-HRP, OD450.

The target of another test is T2, Human 41BB antigen (BLI) (human, UniProt Q07011 24-183).
T2 construct: also called 41BB protein
As to the kind of experiment: BLI, VHH-His on anti-His tips, human 41BB in solution.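 Also: association tracked for 200 s, after which dissociation was followed in 1×PBS free of 41BB protein.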 For orientation: Biolayer interferometry detects binding as a change in optical thickness at a sensor tip.

In test [1] the target is T3, recombinant human OX40-Fc (human, UniProt P43489 29-214).
T3 construct: also called rh-OX40-Fc; human OX40 hFC (R & D systems)
T3 sequence: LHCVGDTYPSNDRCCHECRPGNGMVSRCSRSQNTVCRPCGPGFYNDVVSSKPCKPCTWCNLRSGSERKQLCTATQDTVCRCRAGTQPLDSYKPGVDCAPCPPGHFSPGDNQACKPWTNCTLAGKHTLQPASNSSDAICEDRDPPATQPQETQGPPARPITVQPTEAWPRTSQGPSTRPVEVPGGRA
Briefly: ELISA, OX40-Fc coated, VHH at 200 nM.
Experimental: (§1) After four times washing with PBST, the plate was incubated with detecting antibody anti-his-HRP (1:4000 dilution) 100 μl per well for one hour with shaking at 60 rpm. The plate was developed with 100 μL of TMB per well in the dark and then stopped by 50 μL of stop solution per well. […] Data was analyzed using GraphPad Prisma 9.1.

In test [2] the target is T3, recombinant human OX40-Fc. As to the kind of experiment: ELISA, OX40-Fc coated, VHH at 40 nM. A general note: ELISA stands for enzyme-linked immunosorbent assay.
Experimental: as §1
In test [3] the target is T3, recombinant human OX40-Fc. As to the kind of experiment: ELISA, OX40-Fc coated, VHH at 1000 nM.
Experimental: as §1
The target of test [4] is T3, recombinant human OX40-Fc. As to the kind of experiment: ELISA, OX40-Fc coated, VHH at 0.32 nM.
Experimental: as §1
The target in test [5] is T3, recombinant human OX40-Fc. Briefly: blocking ELISA, OX40-hFc premixed with VHH on coated OX40L-mFc; partial blocker; partial blocker.
Experimental: (§2) Blocking Assay. The 96-well plate was coated with 100 μL of 1 μg/mL OX40L-mFc prepared in antigen coating buffer overnight at 4° C., then blocked with 2% BSA for 1 hour at 25° C. […] The plate was washed with PBST four times, then incubated with Mouse anti-human IgG Fc-HRP at 25° C. for 1 hour. After four times of wash with PBST, the plate was developed with 100 μL of TMB per well for 10 to 20 min in the dark and then stopped by adding 50 μL of Stop Solution.
Test [6] addresses T3, recombinant human OX40-Fc. As to the kind of experiment: ELISA, OX40-Fc coated, VHH at 0.064 nM.
Experimental: as §1
For test [7], the target named is T3, recombinant human OX40-Fc. As to the kind of experiment: ELISA, OX40-Fc coated, VHH at 8 nM.
Experimental: as §1
For test [8], the target named is T3, recombinant human OX40-Fc. Briefly: ELISA, OX40-Fc coated, VHH at 0.0128 nM.
Experimental: as §1
Test [9] addresses T3, recombinant human OX40-Fc. As to the kind of experiment: BLI, VHH-His on anti-His tips, OX40 hFc in solution.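 Also: kinetics recorded at 30 °C in PBS pH 7.2, with 200 s of association followed by dissociation monitored in PBS lacking the OX40 protein.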
Experimental: Bio-Layer Interferometry (BLI) kinetic binding analysis. […] Affinity measurements were performed with Gator equipped with Anti-Penta-His capture (HIS1K) biosensor tips. The assay was performed at 30° C. in 1×PBS buffer (Gibco®, PBS pH7.2). Samples were agitated at 1000 rpm. Prior to analysis, sensors were humidified for 15 min. Purified anti-OX40 VHH was tested for its binding capacity with HIS1K sensor tips. Tips were loaded using 20 μg/ml of anti-OX40 VHH. Loading proceeded for 300 s resulting in capture levels of between 1.8 and 2 nm. […] Association was initiated and monitored for 200 sec, after which tips were transferred to 1×PBS buffer without Factor protein (Gibco, PBS pH 7.2), in order to monitor dissociation. Sensor data was collected throughout the experiments, processed, and analyzed using the Gator data analysis software.
Test [10] has as its target T3, recombinant human OX40-Fc. Briefly: ELISA, OX40-Fc coated, VHH at 1.6 nM.
Experimental: as §1
Test [11] deals with T4, murine serum albumin (murine, UniProt P07724 25-608).
T4 construct: As antigen 'MSA' means murine serum albumin; the VHHs also carry the label MSA; also called MSA
As to the kind of experiment: BLI (Gator), His-tagged VHH on anti-His sensor, murine serum albumin 100 nM in solution.
Experimental: (§3) Kinetic binding analysis of MSA VHHs were performed with Gator Prime system equipped with analyze software. […] The experiments were done at 30° C. Prior to analysis, sensors were socked in Q buffer for 600 sec with shaking at 1000 rpm, and then 2 μM of HIS tagged MSA VHHs were loaded to Anti-His sensors with shaking at 400 rpm for 120 sec. Loaded sensors were transferred into Q buffer for 60 sec. Association of HSA or MSA at 100 nM was initiated and monitored for 120-180 sec with shaking at 1000 rpm, and finally dissociation in Q buffer for 120-180 sec with 1000 rpm shaking. Software V2.0 (Gator Bio) was used for data analysis. The on-rate (Kₒₙ) and off-rate (Kd) were determined by fitting of the association and dissociation phases of each sample. The mathematical model used assumes a 1:1 stoichiometry, fitting only one analyte in solution binding to one binding site on the surface. The equilibrium dissociation constant (KD), a measure for affinity, was then calculated as the ratio of Kd and Kₒₙ.

Test [12] addresses T4, murine serum albumin. Described as above. This is another data set of the same source.
Experimental: as §3
In test [13] the target is T4, murine serum albumin. As to the kind of experiment: ELISA, murine serum albumin coated, VHH 0.128 nM.
Experimental: The 96-well plate was coated with 100 μL per well of HSA or MSA (murine serum albumin) prepared at 1 μg/ml in coating buffer at 4° C. overnight, then blocked with 200 μL per well of casein for one hour at room temperature. MSA VHHs were made into a series of dilutions and added to HSA or MSA coated plate for one hour incubation. The plate was washed with PBST four times, then incubated with Streptavidin conjugated with HRP at 25° C. for 1 hour. After three times of wash with 250 μL PBST per well, the plate was developed with 100 μL of TMB per well for 10 to 20 min in the dark and then stopped by adding 100 μL of Stop Solution.
Test [14] has as its target T5, human serum albumin (human, UniProt P02768 25-609).
T5 construct: also called HSA
As to the kind of experiment: BLI (Gator), His-tagged VHH on anti-His sensor, HSA 100 nM in solution.
Experimental: as §3

Test [15] deals with T5, human serum albumin. Described as above. The source holds these as a separate data set.
Experimental: as §3
Test [16] deals with T3, recombinant human OX40-Fc. Briefly: blocking ELISA, OX40-hFc premixed with VHH on coated OX40L-mFc; full blocker; full blocker.
Experimental: as §2
Test [17] has as its target T6, recombinant human CD40-Fc (human, UniProt P25942 21-193).
T6 construct: also called rh-CD40-Fc; CD40-hFc
Briefly: ELISA, CD40-Fc coated, VHH at 0.32 nM.
Experimental: (§4) After four times washing with PBST, the plate was incubated with detecting antibody anti-his-HRP (1:4000 dilution) 100 μl per well for one hour with shaking at 60 rpm. The plate was developed with 100 μL of TMB per well in the dark and then stopped by 50 μL of stop solution per well.

Test [18] addresses T6, recombinant human CD40-Fc. As to the kind of experiment: ELISA, CD40-Fc coated, VHH at 0.0026 nM.
Experimental: as §4
In test [19] the target is T6, recombinant human CD40-Fc. As to the kind of experiment: ELISA, CD40-Fc coated, VHH at 0.013 nM.
Experimental: as §4
In test [20] the target is T6, recombinant human CD40-Fc. Briefly: ELISA, CD40-Fc coated, VHH at 1000 nM.
Experimental: as §4
Test [21] addresses T6, recombinant human CD40-Fc. As to the kind of experiment: blocking ELISA: CD40L-mFc (1.m18) coated, VHH premixed with CD40-hFc, bound CD40-hFc detected with anti-human IgG Fc-HRP, OD450.
Experimental: The 96-well plate was coated with 100 μL of 1 μg/mL CD40L-mFc prepared in antigen coating buffer overnight at 4° C., then blocked with 2% BSA for 1 hour at 25° C. […] The plate was washed with PBST four times, then incubated with Mouse anti-human IgG Fc-HRP at 25° C. for 1 hour. After four times of wash with PBST, the plate was developed with 100 μL of TMB per well for 10 to 20 min in the dark and then stopped by adding 50 μL of Stop Solution.
For test [22], the target named is T6, recombinant human CD40-Fc. Briefly: ELISA, CD40-Fc coated, VHH at 1.6 nM.
Experimental: as §4
For test [23], the target named is T6, recombinant human CD40-Fc. Briefly: ELISA, CD40-Fc coated, VHH at 0.064 nM.
Experimental: as §4
Test [24] concerns the target T6, recombinant human CD40-Fc. Briefly: ELISA, CD40-Fc coated, VHH at 40 nM.
Experimental: as §4
In test [25] the target is T6, recombinant human CD40-Fc. As to the kind of experiment: ELISA, CD40-Fc coated, VHH at 200 nM.
Experimental: as §4
In test [26] the target is T7, Human CD40 antigen (recombinant, BLI) (human, UniProt P25942 21-193).
T7 construct: also called rh-CD40
As to the kind of experiment: BLI, VHH-His on anti-His tips, human CD40 in solution.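 Also: kinetics measured at 30 °C in PBS pH 7.2, association tracked for 200 s, then dissociation followed in PBS lacking CD40.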
Experimental: Bio-Layer Interferometry (BLI) kinetic binding analysis. […] Affinity measurements were performed with Gator equipped with Anti-Penta-His capture (HIS1K) biosensor tips. The assay was performed at 30° C. in 1×PBS buffer (Gibco®, PBS pH7.2). Samples were agitated at 1000 rpm. Prior to analysis, sensors were humidified for 15 min. […] Sensor data was collected throughout the experiments, processed, and analyzed using the Gator data analysis software.
Briefly, purified anti-CD40 VHH was tested for its binding capacity with HIS1K sensor tips. Tips were loaded using 20 μg/ml of anti-CD40 VHH. Loading proceeded for 300 sec resulting in capture levels of between 1.8 and 2 nm. […] Association was initiated and monitored for 200 sec, after which tips were transferred to 1×PBS buffer without CD40 protein in order to monitor dissociation.

In test [27] the target is T6, recombinant human CD40-Fc. Briefly: ELISA, CD40-Fc coated, VHH at 8 nM.
Experimental: as §4

Where two headings read alike, the source gives them in different places.

T2 sequence (Q07011 24-183 limits assumed): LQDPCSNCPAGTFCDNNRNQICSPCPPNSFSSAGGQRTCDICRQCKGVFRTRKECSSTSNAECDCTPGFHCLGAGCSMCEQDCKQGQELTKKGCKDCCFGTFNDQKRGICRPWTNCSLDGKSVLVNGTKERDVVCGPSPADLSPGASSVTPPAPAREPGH
T7 sequence (P25942 21-193 limits assumed): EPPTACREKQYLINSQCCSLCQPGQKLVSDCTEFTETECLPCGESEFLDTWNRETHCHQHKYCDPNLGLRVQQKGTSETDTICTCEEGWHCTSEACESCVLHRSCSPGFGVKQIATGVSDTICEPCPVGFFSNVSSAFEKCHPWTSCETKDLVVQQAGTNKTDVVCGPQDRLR
T6 sequence (P25942 21-193): as the sequence (P25942 21-193 limits assumed) above
T1 sequence (Q07011 24-183): as the sequence (Q07011 24-183 limits assumed) above
Experimental for 4-1BB Fc: The 96-well plate was coated with 100 μL of 1 μg/mL 41BBL-mFc prepared in antigen coating buffer overnight at 4° C., then blocked with 2% BSA for 1 hour at 25° C. […] The plate was washed with PBST four times, then incubated with Mouse anti-human IgG Fc-HRP at 25° C. for 1 hour. After four times of wash with PBST, the plate was developed with 100 μL of TMB per well for 10 to 20 min in the dark and then stopped by adding 50 μL of Stop Solution.
Experimental for Human 41BB antigen (BLI): Tips were loaded using 20 μg/ml of anti-41BB VHH. Loading proceeded for 300 sec resulting in capture levels of between 1.8 and 2 nm. […] Association was initiated and monitored for 200 sec, after which tips were transferred to 1×PBS buffer without 41BB protein, in order to monitor dissociation.

B1: 4-1BB-59 (VHH, not shown: small tags and cut ends)
VHH: EVQLVESGGGLVQPGESLRLSCAASGDTVSGYVMLWWRQAPGKERELVAAISSVGYTYYTDSVKGRFTISRDNAKNTVYLQMNSLKPEDTAVYYCAADPASISTRSAYWGQGTQVTVSS
A word on the Kd: it is the constant that tells how readily two partners part at equilibrium. As usually defined, the koff is the first-order rate constant of dissociation. The term kon denotes the second-order rate constant of association. With B1, the “IC50 (read off the curve)” value with 4-1BB Fc is approximately 0.5 nM. In the test with Human 41BB antigen (BLI), binding was characterised by a dissociation constant (Kd) of 2.35 nM, the koff is 0.00121 s⁻¹ and the kon came to 512000 M⁻¹ s⁻¹.

B2: pgXX88-SZ-4 (VHH, not shown: small tags and cut ends)
VHH: QVQLVESGGGLAQPGSSLRLSCTASGTVFSILSATWFRQAPGKAHEARELVAFISSDGVSMHADSVKGRFTISRDNAASTVYLQMDNLQPEDTAVYFCKLSNSMMSLEYWGRGTQVTVSS
notes: also called ppXX88-SZ-4
For orientation: EC50 means the midpoint of the concentration-response curve. Take B2: the OD450 in test [1] was determined as 1.58; in test [2], 1.49; in test [3], 1.78; in [4] it was 0.126; in [6], 0.076; in test [7], 1.12. For the same molecule, the OD450 in test [8] came to 0.062; in [10] it was 0.463. For the same molecule, the EC50 in test [5] was 1.98 nM. The dissociation constant (Kd) in test [9] worked out at 0.185 nM. The koff in test [9] came out at 8.73e-05 s⁻¹. Moreover, the kon in test [9] turned out to be 472000 M⁻¹ s⁻¹.

B3: MSA4 (VHH)
VHH: EVQLVEFGGGLVQAGGSLRLSCAASGRTDSAYRMGWFRQAPGKEREFVSAINWSDGRTVYLDSVKGRFTISRDNAKNMVYLQMNSLKPEDTAVYYCAADPDSRLYYTVPQNYDYWGQGTQVTVSS
notes: Llama single domain antibody with C-terminal His-tag, made in HEK293; not shown: C-terminal His-tag
Take B3: the Kd turned out to be 8.83 nM with murine serum albumin [11], 4.49 nM in the test with murine serum albumin [12], 7.16 nM with human serum albumin [14] and 11.3 nM with human serum albumin [15]. Besides, the koff is 0.0011 s⁻¹ in the test with murine serum albumin [11], 0.000644 s⁻¹ with murine serum albumin [12], 0.000752 s⁻¹ with human serum albumin [14] and 0.00101 s⁻¹ with human serum albumin [15]. Besides, the kon with murine serum albumin [11] is 125000 M⁻¹ s⁻¹; in the test with murine serum albumin [12], 143000 M⁻¹ s⁻¹; with human serum albumin [14] it was 105000 M⁻¹ s⁻¹; with human serum albumin [15], 89600 M⁻¹ s⁻¹. Moreover, the “ELISA OD450” value with murine serum albumin [13] was 0.07.

B4: pgXX88-10 (VHH, not shown: small tags and cut ends)
VHH: EVQLVESGGGLVQAGESLRLSCSASGSIRLNAVGWFRQAPVNQRLMVATITHNNSTNYADSVQGRFTIARDDAKNTVTLQMNSLKPEDTAVYMCKVYQLPVPISSHDDYWGQGTQVTVSS
Consider B4, for which the OD450 in test [1] worked out at 1.61; in test [2], 1.54; in test [3], 1.62; in [4], 0.993; in test [6] it was 0.369; in test [7] it was 1.48. Also, the OD450 in test [8] was found to be 0.119; in test [10], 1.46. The EC50 in test [16] was found to be 0.12 nM. Further, the Kd in [9] was less than 0.001 nM. Moreover, in test [9], the koff was 1e-06 s⁻¹. The kon in test [9] was 662000 M⁻¹ s⁻¹.

B5: pgXX88-SZ-15 (VHH, not shown: small tags and cut ends)
VHH: QVQLVESGGGLVQPGGSLRLSCSPSEGAFKMLTTGWFRQVLGKEREFVSAISWGGGATYYADSVKGRFTVSRDNAKNTVYLQMNSLKPEDTAVYYCAVDTGNGVATNIRSQSRYDYWGQGTQVTVSS
For the molecule B5, the OD450 in test [1] was found to be 1.94; in test [2], 1.95; in test [3], 2.12; in test [4] it was 0.736; in test [6], 0.166; in test [7] it was 1.89. Moreover, the OD450 worked out at 0.068 in test [8] and 1.66 in test [10]. Moreover, the EC50 in [16] stood at 0.12 nM. Moreover, the Kd in [9] is 0.48 nM. The dissociation rate constant (koff) in [9] stood at 0.000259 s⁻¹. In test [9], the kon was found to be 539000 M⁻¹ s⁻¹.

B6: pgDD40-HZ-24 (VHH, not shown: small tags and cut ends)
VHH: EVQLVESGGGSVQAGGSLRLSCAASLSTFSNYRMGWFRRAPGKERELVARIEPHGVVDYGDSVKGRFTISRDNAKNTVTVYLHMNSLKPEDTAVYYCNALRLISGRYDPLFSSWGQGTQVTVSS
notes: also called pgDD40-HG-24
On to B6, for which the OD450 in test [17] was 0.251; in test [18] it was 0.078; in test [19] it was 0.055; in test [20] it was 1.81; in test [22] it was 0.903; in test [23] it was 0.084. Moreover, the OD450 was 1.71 in test [24], 1.84 in test [25] and 1.7 in [27]. Also, the “IC50 (read off the curve)” value in [21] is approximately 20 nM. The Kd in test [26] is less than 0.001 nM. In addition, the koff in [26] stood at 1e-05 s⁻¹. For the same molecule, the association rate constant (kon) in test [26] stood at 607000 M⁻¹ s⁻¹.
